In US20160159910A1 (Genentech, published 2016):
Numbering of substitutions follows the chain as printed. Blank lines part the entries; values can stand above or below the binder they belong to.

Columns and labels:
[1] = target: T1, human B7-H4 (human, UniProt Q7Z7D3 29-282); experiment: Scatchard analysis, 125I-antibody radioligand cell binding on MX-1 tumor cells
T1 construct: On stably transfected 293 cells (recombinant) or on MX-1 / SKBR3 tumor cells (endogenous); the cell is named under assay; also called huB7-H4; hB7-H4
T1 sequence: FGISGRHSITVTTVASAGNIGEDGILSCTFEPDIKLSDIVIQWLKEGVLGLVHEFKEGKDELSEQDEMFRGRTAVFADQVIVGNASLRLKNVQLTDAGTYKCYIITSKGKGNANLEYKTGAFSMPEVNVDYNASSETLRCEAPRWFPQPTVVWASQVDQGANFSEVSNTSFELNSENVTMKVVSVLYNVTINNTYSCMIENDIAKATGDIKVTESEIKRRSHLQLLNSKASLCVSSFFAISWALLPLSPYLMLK
Description: (§1) Competition assay mixtures of 50 μL volume containing a fixed concentration of [I¹²⁵] labeled antibody and decreasing concentrations of serially diluted, unlabeled antibody were placed into 96-well plates. […] Cells were detached from the flask using Sigma Cell Dissociation Solution and were washed with binding buffer, which consisted of Dulbecco's Modified Eagle Medium (DMEM) with 1% bovine serum albumin (BSA), […] and 0.1% sodium azide. The washed cells were added to the 96 well plates at a density of 100,000 cells in 0.2 mL of binding buffer. The final concentration of the [I¹²⁵] labeled antibody in each well was ˜250 pM. The final concentration of the unlabeled antibody in the competition assay ranged from 1000 nM through ten 2-fold dilution steps to a 0 nM buffer-only assay. Competition assays were carried out in triplicate. Competition assays were incubated for 2 hours at room temperature. After the 2-hour incubation, the competition assays were transferred to a Millipore Multiscreen filter plate (Billerica, Mass.) and washed 4 times with binding buffer to separate the free from bound [I¹²⁵] labeled antibody. The filters were counted on a Wallac Wizard 1470 gamma counter (PerkinElmer Life and Analytical Sciences Inc.; Wellesley, Mass.). The binding data was evaluated using NewLigand software (Genentech), which uses the fitting algorithm of Munson and Robard to determine the binding affinity of the antibody (Munson and Robard 1980).

[2] = target: T1, human B7-H4; experiment: Scatchard analysis on MX-1 cells; the table puts the affinity of 8.3 nM beside the parent antibody's 7.8 nM
Description: as §1, with “After the 2-hour incubation, the competition assays were transferred to a Millipore Multiscreen filter plate (Billerica, Mass.) and washed 4 times with binding buffer to separate the free from bound [I¹²⁵] labeled antibody.” left out

[3] = target: T2, mouse B7-H4 (mouse, UniProt Q7TSP5 29-283); experiment: FACS titration on 293 cells expressing recombinant mouse B7-H4 (panel '293-mouse B7-H4', lower block), geometric mean fluorescence
T2 construct: On stably transfected 293 cells; also called muB7-H4; recombinant mouse B7-H4
T2 sequence: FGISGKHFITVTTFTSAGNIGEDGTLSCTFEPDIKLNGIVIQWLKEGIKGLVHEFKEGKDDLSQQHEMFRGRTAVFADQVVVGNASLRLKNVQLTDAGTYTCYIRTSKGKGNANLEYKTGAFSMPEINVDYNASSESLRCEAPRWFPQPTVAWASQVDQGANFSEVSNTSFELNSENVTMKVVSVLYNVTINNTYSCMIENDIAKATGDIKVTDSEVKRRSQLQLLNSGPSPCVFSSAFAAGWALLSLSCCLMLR
Description: (§2) The fluorescent signal was acquired with a BD FACS Calibur and EC₅₀ values were determined with the Graph Pad program Prism 4.

[4] = target: T1, human B7-H4; experiment: FACS titration on MX-1 tumor cells, endogenous human B7-H4 (panel 'MX-1 tumor cell line', lower block), geometric mean fluorescence
Description: as §2

[5] = target: T3, cynomolgus monkey B7-H4 (cynomolgus monkey, UniProt Q7Z7D3 29-282 (human entry)); experiment: FACS titration on 293 cells expressing recombinant cynomolgus B7-H4 (panel '293-cyno B7-H4', lower block), geometric mean fluorescence
T3 construct: On stably transfected 293 cells; also called cyno B7-H4; recombinant cynomolgus monkey B7-H4
T3 chain: T1 sequence with L49I, F238L, S248A
Description: as §2

[6] = target: T1, human B7-H4; experiment: FACS titration on 293 cells expressing recombinant human B7-H4 (panel '293-human B7-H4', lower block), Dylight-650 goat anti-human IgG, geometric mean fluorescence
Description: as §2

[7] = target: T1, human B7-H4; experiment: Scatchard analysis on MX-1 cells; the table puts the affinity of 8.7 nM beside the parent antibody's 7.8 nM
Description: as §1, with “After the 2-hour incubation, the competition assays were transferred to a Millipore Multiscreen filter plate (Billerica, Mass.) and washed 4 times with binding buffer to separate the free from bound [I¹²⁵] labeled antibody.” left out

[8] = target: T4, human B7-H4 S114A glycosylation mutant (human, UniProt Q7Z7D3 29-282); experiment: FACS on 293 cells transfected with S114A human B7-H4 (glycosylation independence)
T4 construct: Full-length human B7-H4 membrane construct with S114 changed to alanine to prevent N-linked glycosylation at N112-S114; transiently expressed on 293 cells; also called mutated S114A human B7-H4; recombinant human B7-H4 S114A
T4 sequence: T1 sequence with S86A

[9] = target: T1, human B7-H4; experiment: Scatchard analysis, 125I-antibody radioligand cell binding on stably transfected 293 cells
Description: as §1

[10] = target: T3, cynomolgus monkey B7-H4; experiment: as above
Description: as §1

[11] = target: T5, rat B7-H4 (rat, UniProt Q501W4 29-282); experiment: Scatchard on stable cell line expressing recombinant B7-H4 (footnote 1 of the table)
T5 construct: On stably transfected 293 cells; also called recombinant rat B7-H4
T5 sequence: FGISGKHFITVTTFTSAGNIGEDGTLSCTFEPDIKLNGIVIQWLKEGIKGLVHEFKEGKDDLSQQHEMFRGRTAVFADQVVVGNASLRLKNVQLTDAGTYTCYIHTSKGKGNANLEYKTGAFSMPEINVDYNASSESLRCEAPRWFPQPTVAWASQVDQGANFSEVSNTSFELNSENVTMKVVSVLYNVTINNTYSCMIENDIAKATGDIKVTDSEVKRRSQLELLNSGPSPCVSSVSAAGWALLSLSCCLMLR
Description: Competition assay mixtures of 50 μL volume containing a fixed concentration of [I¹²⁵] labeled antibody and decreasing concentrations of serially diluted, unlabeled antibody were placed into 96-well plates. […] Cells were detached from the flask using Sigma Cell Dissociation Solution and were washed with binding buffer, which consisted of Dulbecco's Modified Eagle Medium (DMEM) with 1% bovine serum albumin (BSA), 300 mM human IgG and 0.1% sodium azide. The washed cells were added to the 96 well plates at a density of 100,000 cells in 0.2 mL of binding buffer. The final concentration of the [I¹²⁵] labeled antibody in each well was ˜250 pM. The final concentration of the unlabeled antibody in the competition assay ranged from 1000 nM through ten 2-fold dilution steps to a 0 nM buffer-only assay. Competition assays were carried out in triplicate. Competition assays were incubated for 2 hours at room temperature.

[12] = target: T2, mouse B7-H4; experiment: Scatchard analysis, 125I-antibody radioligand cell binding on stably transfected 293 cells
Description: as §1

[13] = target: T5, rat B7-H4; experiment: as above
Description: as §1

[14] = target: T6, soluble B7-H4 (Ig-V; G28-V157)-Fc fusion protein (human, UniProt Q7Z7D3 28-157); experiment: FACS competition: soluble B7-H4 (Ig-V)-Fc against dye-labelled 22C10 on 293 cells expressing human B7-H4
T6 construct: Engineered soluble protein; also called B7-H4-(Ig-V)-hIgG1 Fc fusion protein; soluble B7-H4 IgV-Fc fusion protein; not shown: human IgG1 Fc
T6 sequence: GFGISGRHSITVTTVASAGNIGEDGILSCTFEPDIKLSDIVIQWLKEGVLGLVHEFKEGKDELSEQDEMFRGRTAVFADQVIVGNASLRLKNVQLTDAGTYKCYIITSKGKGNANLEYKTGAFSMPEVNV

[15] = target: T2, mouse B7-H4; experiment: FACS titration on 293 cells expressing recombinant mouse B7-H4 (panel '293-mouse B7-H4', upper block), geometric mean fluorescence
Description: as §2

[16] = target: T1, human B7-H4; experiment: FACS titration on MX-1 tumor cells, endogenous human B7-H4 (panel 'MX-1 tumor cell line', upper block), geometric mean fluorescence
Description: as §2

[17] = target: T3, cynomolgus monkey B7-H4; experiment: FACS titration on 293 cells expressing recombinant cynomolgus B7-H4 (panel '293-cyno B7-H4', upper block), geometric mean fluorescence
Description: as §2

[18] = target: T1, human B7-H4; experiment: FACS titration on 293 cells expressing recombinant human B7-H4 (panel '293-human B7-H4', upper block), Dylight-650 goat anti-human IgG, geometric mean fluorescence
Description: as §2

[19] = target: T1, human B7-H4; experiment: Scatchard analysis on MX-1 cells; the table puts the affinity of 10 nM beside the parent antibody's 4.9 nM
Description: as §1, with “After the 2-hour incubation, the competition assays were transferred to a Millipore Multiscreen filter plate (Billerica, Mass.) and washed 4 times with binding buffer to separate the free from bound [I¹²⁵] labeled antibody.” left out

B1: humanized 1D11.v1.7 (antibody, V domains shown)
VH: EVQLVQSGAEVKKPGASVKVSCKASGYTFTSYWIGWVRQAPGQGLEWIGDIYPGGGYTNYNEKFKGRATLTRDTSTSTAYLELSSLRSEDTAVYYCARLDGSSYRGAMDSWGQGTLVTVSS
VL: DIQMTQSPSSLSASVGDRVTITCKASQGFNKYVAWYQQKPGKAPKLLIYYTSTLQPGVPSRFSGSGSGRDYTLTISSLQPEDFATYYCLQYGNLLYAFGQGTKVEIKR
notes: also called hu1D11.v1.7; h1D11.v1.7
Kd [1]: 8.3 nM
Fold to Parent mAb [2]: 0.94
EC50 [3]: 0.45 µg/mL
EC50 [4]: 0.34 µg/mL
EC50 [5]: 0.68 µg/mL
EC50 [6]: 0.66 µg/mL

B2: humanized 1D11.v1.8 (antibody, V domains shown)
VH: B1 VH with L70I
VL: B1 VL
notes: also called hu1D11.v1.8; h1D11.v1.8
Kd [1]: 8.7 nM
Fold to Parent mAb [7]: 0.89
EC50 [3]: 1.32 µg/mL
EC50 [4]: 0.53 µg/mL
EC50 [5]: 0.18 µg/mL
EC50 [6]: 2.29 µg/mL

B3: chimeric antibody ch32D6 (antibody, human IgG1, V domains shown)
VH: EVQLQQSGPDLVKPGASVKISCKASGYSFTGYYIHWMKQSHGKSLEWIGRVNPNNGDPIYNQKFRGKAILTVDQSSNTAYMELRSLTSEASAVYYCARVLFYYGSPFAYWGQGTLVTVSA
VL: DIVMTQSPSSLIVTAGEKVTMSCRSSQSLFDSGSQRNYLTWFHQKPGRPPKLLIYWASTRESGVPDRFTGSGSGTDFTLTISSVQTEDLAVYFCQNDYSFPFTFGSGTKLEEK
notes: also called antibody 32D6
fold binding over the isotype control [8]: 100 fold
Kd [9]: 4.8 nM
Kd [10]: 3.1 nM
binding result [11]: no binding

Results, then the binder that gave them:

Kd [1]: 4.9 nM
fold binding over the isotype control [8]: 100 fold
Kd [9]: 6.6 nM
Kd [10]: 4.6 nM
Kd [12]: 18.3 nM
Kd [13]: 5.7 nM
binding result [14]: no binding
EC50 [15]: 0.66 µg/mL
EC50 [16]: 0.35 µg/mL
EC50 [17]: 0.41 µg/mL
EC50 [18]: 1.2 µg/mL
B4: chimeric antibody ch22C10 (antibody, human IgG1, V domains shown)
VH: QVQLQQPGAELVKPGTSVKLSCKASGYTFTNFWIHWVIQRPGQGLEWIGEIDPSDSYTNYNQKFKGKATLTVDKSSNTAYMQLSSLTSEDSAVYYCSREITTVDYWGQGTTLTVSS
VL: QIVLTQSPTIMSASPGEKVTLTCSATSSISYMHWYQQKPGTSPKGWIYDTSKLAHGVPARFSGSGSGTSYSLTISSMEAEDAATYYCHQRRSYPFTFGSGTKLEIK
notes: also called ch2210; parental 22C10 antibody

Kd [1]: 10 nM
Fold to Parent mAb [19]: 0.49
EC50 [15]: 0.97 µg/mL
EC50 [16]: 0.73 µg/mL
EC50 [17]: 1.19 µg/mL
EC50 [18]: 1.44 µg/mL
B5: humanized 22C10.v2.8 (antibody, V domains shown)
VH: EVQLVQSGAEVKKPGASVKVSCKASGYTFTNFWIHWVRQAPGQGLEWIGEIDPSDSYTNYNQKFKGRVTITRDTSTSTAYLELSSLRSEDTAVYYCAREITTVDYWGQGTLVTVSS
VL: DIQMTQSPSSLSASVGDRVTITCSATSSISYMHWYQQKPGKAPKGLIYDTSKLAHGVPSRFSGSGSGTDFTLTISSLQPEDFATYYCHQRRSYPFTFGQGTKVEIK
notes: Assessed in the form of an IgG produced in 293 cells; also called hu22C10.v2.8; h22C10.v2.8
